Measurements published in FireProtDB (doi:10.1093/protein/12.6.497).

Conditions: Sus scrofa, pH 7, 20 °C, GdnHCl, Fluorescence, PIPES 50 mM, reversible: yes

| Substance | ddG of mutation (higher = less stable) (structure 1P2P) | denaturant m value (structure 1P2P) | denaturant midpoint (higher = more stable) (structure 1P2P) | unfolding free energy (structure 1P2P) | denaturant m value | denaturant midpoint (higher = more stable) | unfolding free energy |
| --- | --- | --- | --- | --- | --- | --- | --- |
| Phospholipase A2, major isoenzyme H70K, P00592 | 3.21 kcal/mol | 0.65 kcal/mol/M | 5.2 M | 3.3 kcal/mol |  |  |  |
| Phospholipase A2, major isoenzyme H70N, P00592 | 2.28 kcal/mol | 0.84 kcal/mol/M | 5.1 M | 4.23 kcal/mol |  |  |  |
| Phospholipase A2, major isoenzyme H70Q, P00592 | 1.03 kcal/mol | 0.91 kcal/mol/M | 6.1 M | 5.48 kcal/mol |  |  |  |
| Phospholipase A2, major isoenzyme wild type, P00592 |  |  |  |  | 1 kcal/mol/M | 6.4 M | 6.51 kcal/mol |
